Source: US20190276511A1 (BIONTECH RNA PHARMACEUTICALS, published 2019)
Like-named read-outs stand apart in the source and are kept apart here.

T1: OX40-Fc (human, UniProt P43489 29-214)
T1 construct: extracellular domain; hinge included for covalent assembly; also called OX40 receptor-Fc fusion protein; not shown: human Fc gamma 1 region including the hinge region
T1 sequence (looked up): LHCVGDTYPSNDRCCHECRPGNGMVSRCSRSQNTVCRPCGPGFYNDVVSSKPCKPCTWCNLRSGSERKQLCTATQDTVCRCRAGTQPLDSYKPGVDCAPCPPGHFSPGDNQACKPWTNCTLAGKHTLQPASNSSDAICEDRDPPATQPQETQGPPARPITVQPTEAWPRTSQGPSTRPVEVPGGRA

T2: CD27-Fc (human, UniProt P26842 20-191)
T2 construct: extracellular domain; hinge included for covalent assembly; also called CD27 receptor-Fc fusion protein; not shown: human Fc gamma 1 region including the hinge region
T2 sequence (looked up): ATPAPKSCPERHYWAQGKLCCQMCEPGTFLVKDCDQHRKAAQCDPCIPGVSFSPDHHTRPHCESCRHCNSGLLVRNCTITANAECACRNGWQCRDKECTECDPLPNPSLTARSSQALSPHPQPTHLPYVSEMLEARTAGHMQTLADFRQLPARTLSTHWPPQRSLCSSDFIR

T3: OX40 receptor on cells (human, UniProt P43489 29-277)
T3 sequence (looked up): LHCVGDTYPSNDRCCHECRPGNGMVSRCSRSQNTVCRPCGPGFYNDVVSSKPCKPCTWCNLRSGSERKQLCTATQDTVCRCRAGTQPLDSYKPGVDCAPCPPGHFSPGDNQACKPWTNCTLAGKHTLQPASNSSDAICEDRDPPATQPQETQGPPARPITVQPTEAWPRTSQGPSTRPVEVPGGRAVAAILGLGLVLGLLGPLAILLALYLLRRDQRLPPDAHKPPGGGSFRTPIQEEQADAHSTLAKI


Assays:
OX40-Fc [1] = molecular target: T1, OX40-Fc; assay: ELISA, coated receptor-Fc
Description: (§1) Receptor binding of the single-chain Duokines was analyzed by ELISA using fusion proteins of the extracellular region of CD40, CD27, 4-1BB and OX40, respectively, with the human Fcγ1 region including the hinge region for covalent assembly (CD40-Fc, CD27-Fc, 4-1BB-Fc, OX40-Fc). Receptor-Fc fusion proteins (200 ng/well) were coated overnight at 4° C. and remaining binding sites were blocked with PBS, 2% skimmed milk powder (2% MPBS). […] The interactions between scDuokine and receptor were dose-dependent with EC₅₀ values in the low nanomolar ranges (FIG. 11 AB, Tab. 2).

CD40-Fc [2] = molecular target: T4, CD40-Fc (human, UniProt P25942 21-193); assay: ELISA, coated receptor-Fc
T4 construct: extracellular domain; hinge included for covalent assembly; also called CD40 receptor-Fc fusion protein; not shown: human Fc gamma 1 region including the hinge region
T4 sequence (P25942 21-193 limits assumed): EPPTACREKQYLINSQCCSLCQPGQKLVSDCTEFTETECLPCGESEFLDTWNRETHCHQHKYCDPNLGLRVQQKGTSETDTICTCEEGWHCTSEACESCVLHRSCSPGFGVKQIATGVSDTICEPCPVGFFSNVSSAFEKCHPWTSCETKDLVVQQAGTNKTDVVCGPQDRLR
Description: as §1

CD27-Fc [3] = molecular target: T2, CD27-Fc; assay: ELISA, coated receptor-Fc
4-1BB-Fc = molecular target: T5, 4-1BB-Fc (human, UniProt Q07011 24-186); assay: ELISA, coated receptor-Fc
T5 construct: extracellular domain; hinge included for covalent assembly; also called 4-1BB receptor-Fc fusion protein; not shown: human Fc gamma 1 region including the hinge region

OX40 receptor on cells [4] = molecular target: T3, OX40 receptor on cells; assay: cell-based or functional assay
CD40 receptor on cells [5] = molecular target: T6, CD40 receptor on cells (human, UniProt P25942 21-277); assay: cell-based or functional assay
T6 sequence (P25942 21-277): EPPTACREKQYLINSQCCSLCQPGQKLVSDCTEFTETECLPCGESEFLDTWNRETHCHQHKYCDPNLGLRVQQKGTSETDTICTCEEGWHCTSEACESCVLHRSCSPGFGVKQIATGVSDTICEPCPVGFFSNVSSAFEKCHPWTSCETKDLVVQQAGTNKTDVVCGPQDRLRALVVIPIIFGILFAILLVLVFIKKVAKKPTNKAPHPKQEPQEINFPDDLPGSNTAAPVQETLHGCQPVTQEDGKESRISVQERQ

OX40-Fc [6] = molecular target: T1, OX40-Fc; assay: ELISA, coated receptor-Fc; remark: listed apart in the source
Description: (§2) Receptor binding of the Duokines was analyzed by ELISA using fusion proteins of the extracellular region of CD40, CD27, 4-1BB and OX40, respectively, with the human Fcγ1 region including the hinge region for covalent assembly (CD40-Fc, CD27-Fc, 4-1BB-Fc, OX40-Fc). Receptor-Fc fusion proteins (200 ng/well) were coated overnight at 4° C. and remaining binding sites were blocked with PBS, 2% skimmed milk powder (2% MPBS).

CD40-Fc [7] = molecular target: T4, CD40-Fc; assay: ELISA, coated receptor-Fc; remark: listed apart in the source
Description: as §2

OX40 receptor on cells [8] = molecular target: T3, OX40 receptor on cells; assay: cell-based or functional assay; remark: listed apart in the source
CD40 receptor on cells [9] = molecular target: T6, CD40 receptor on cells; assay: cell-based or functional assay; remark: listed apart in the source
CD27-Fc [10] = molecular target: T2, CD27-Fc; assay: ELISA, coated receptor-Fc; remark: listed apart in the source
Description: as §1

CD40-Fc [11] = molecular target: T4, CD40-Fc; assay: ELISA, coated receptor-Fc; remark: listed apart in the source

EC50 (OX40-Fc [1]) [nM]	EC50 (CD40-Fc [2]) [nM]	binding result (CD27-Fc [3])	binding result (4-1BB-Fc)	Receptor activation (EC50, nM) (OX40 receptor on cells [4]) [nM]	Receptor activation (EC50, nM) (CD40 receptor on cells [5]) [nM]	EC50 (OX40-Fc [6]) [nM]	EC50 (CD40-Fc [7]) [nM]	Receptor activation (EC50, nM) (OX40 receptor on cells [8]) [nM]	Receptor activation (EC50, nM) (CD40 receptor on cells [9]) [nM]	EC50 (CD27-Fc [10]) [nM]	binding result (CD40-Fc [11])	Binder
1.33	40.2	no binding (tested: 100 nM (FIG. 10))	no binding (tested: 100 nM (FIG. 10))	0.57	9.54	–	–	–	–	–	–	scCD40L-scOX40L (ligand, scDuokine from HEK293, FLAG-purified; VH leader left out; also called single-chain Duokine scCD40L-scOX40L; not shown: N-terminal FLAG tag) GDQNPQIAAHVISEASSKTTSVLQWAEKGYYTMSNNLVTLENGKQLTVKRQGLYYIYAQVTFCSNREASSQAPFIASLCLKSPGRFERILLRAANTHSSAKPCGQQSIHLGGVFELQPGASVFVNVTDPSQVSHGTGFTSFGLLKLGGGSGGGGDQNPQIAAHVISEASSKTTSVLQWAEKGYYTMSNNLVTLENGKQLTVKRQGLYYIYAQVTFCSNREASSQAPFIASLCLKSPGRFERILLRAANTHSSAKPCGQQSIHLGGVFELQPGASVFVNVTDPSQVSHGTGFTSFGLLKLGGGSGGGGDQNPQIAAHVISEASSKTTSVLQWAEKGYYTMSNNLVTLENGKQLTVKRQGLYYIYAQVTFCSNREASSQAPFIASLCLKSPGRFERILLRAANTHSSAKPCGQQSIHLGGVFELQPGASVFVNVTDPSQVSHGTGFTSFGLLKLGGGGSGGGTGGGGSQVSHRYPRIQSIKVQFTEYKKEKGFILTSQKEDEIMKVQNNSVIINCDGFYLISLKGYFSQEVNISLHYQKDEEPLFQLKKVRSVNSLMVASLTYKDKVYLNVTTDNTSLDDFHVNGGELILIHQNPGEFCVLGGGSGGGQVSHRYPRIQSIKVQFTEYKKEKGFILTSQKEDEIMKVQNNSVIINCDGFYLISLKGYFSQEVNISLHYQKDEEPLFQLKKVRSVNSLMVASLTYKDKVYLNVTTDNTSLDDFHVNGGELILIHQNPGEFCVLGGGSGGGQVSHRYPRIQSIKVQFTEYKKEKGFILTSQKEDEIMKVQNNSVIINCDGFYLISLKGYFSQEVNISLHYQKDEEPLFQLKKVRSVNSLMVASLTYKDKVYLNVTTDNTSLDDFHVNGGELILIHQNPGEFCVL
–	–	no binding (tested: 100 nM (FIG. 4))	no binding (tested: 100 nM (FIG. 4))	–	–	1.01	1.45	0.73	3.86	–	–	OX40L-CD40L (ligand, Duokine from HEK293, FLAG-purified; VH leader left out; homotrimer by SEC; also called Duokine OX40L-CD40L; not shown: N-terminal FLAG tag) QVSHRYPRIQSIKVQFTEYKKEKGFILTSQKEDEIMKVQNNSVIINCDGFYLISLKGYFSQEVNISLHYQKDEEPLFQLKKVRSVNSLMVASLTYKDKVYLNVTTDNTSLDDFHVNGGELILIHQNPGEFCVLGGGGSGGGGSGGGGSGDQNPQIAAHVISEASSKTTSVLQWAEKGYYTMSNNLVTLENGKQLTVKRQGLYYIYAQVTFCSNREASSQAPFIASLCLKSPGRFERILLRAANTHSSAKPCGQQSIHLGGVFELQPGASVFVNVTDPSQVSHGTGFTSFGLLKL
286	–	–	no binding (tested: 100 nM (FIG. 10))	1.49	–	–	–	–	–	7.34	no binding (tested: 100 nM (FIG. 10))	scCD27L-scOX40L (ligand, scDuokine from HEK293, FLAG-purified; VH leader left out; also called single-chain Duokine scCD27L-scOX40L; not shown: N-terminal FLAG tag) SLGWDVAELQLNHTGPQQDPRLYWQGGPALGRSFLHGPELDKGQLRIHRDGIYMVHIQVTLAICSSTTASRHHPTTLAVGICSPASRSISLLRLSFHQGCTIASQRLTPLARGDTLCTNLTGTLLPSRNTDETFFGVQWVRPGGGSGGGSLGWDVAELQLNHTGPQQDPRLYWQGGPALGRSFLHGPELDKGQLRIHRDGIYMVHIQVTLAICSSTTASRHHPTTLAVGICSPASRSISLLRLSFHQGCTIASQRLTPLARGDTLCTNLTGTLLPSRNTDETFFGVQWVRPGGGSGGGSLGWDVAELQLNHTGPQQDPRLYWQGGPALGRSFLHGPELDKGQLRIHRDGIYMVHIQVTLAICSSTTASRHHPTTLAVGICSPASRSISLLRLSFHQGCTIASQRLTPLARGDTLCTNLTGTLLPSRNTDETFFGVQWVRPGGGGSGGGTGGGGSQVSHRYPRIQSIKVQFTEYKKEKGFILTSQKEDEIMKVQNNSVIINCDGFYLISLKGYFSQEVNISLHYQKDEEPLFQLKKVRSVNSLMVASLTYKDKVYLNVTTDNTSLDDFHVNGGELILIHQNPGEFCVLGGGSGGGQVSHRYPRIQSIKVQFTEYKKEKGFILTSQKEDEIMKVQNNSVIINCDGFYLISLKGYFSQEVNISLHYQKDEEPLFQLKKVRSVNSLMVASLTYKDKVYLNVTTDNTSLDDFHVNGGELILIHQNPGEFCVLGGGSGGGQVSHRYPRIQSIKVQFTEYKKEKGFILTSQKEDEIMKVQNNSVIINCDGFYLISLKGYFSQEVNISLHYQKDEEPLFQLKKVRSVNSLMVASLTYKDKVYLNVTTDNTSLDDFHVNGGELILIHQNPGEFCVL
